Experimental data from US20130034894A1, “NOVEL ALLENE OXIDE SYNTHASE DERIVED FROM LEMNA PAUCICOSTATA” (priority 2010, published 2013).

Columns and labels:
[1] = Kinetic analysis of allene oxide synthase (decrease in absorbance at 234 nm, Hanes-Woolf plot); assay type: biochemical; details: for Kcat / Km / Vmax: substrate 9-HPOT 5-53 μM, 40 mM phosphate buffer pH 7.5, 1% EtOH, 25° C.
Method: SHLpAOS obtained from Lemna paucicostata SH strain was subjected to kinetic analysis. Using a reaction mixture comprising 40 mM phosphate buffer (pH 7.5) and 1% EtOH, the reaction was carried out at a temperature of 25° C. The substrate 9-HPOT was tested at the substrate concentration of 5-53 μM. The substrate 9-HOPT was added as an EtOH solution, and the final concentration of EtOH was adjusted to 1%. 100 μl of the reaction mixture was added into a cuvette, and a decrease in absorbance at 234 nm was scanned over time for 1 minute at an interval of 2 seconds using the SmartSpec Plus Spectrophotometer (Bio-Rad). From the A234 determined, the amount of the reaction product was calculated (e=25,000). Kinetic parameters were determined using the Hanes-Woolf plot ([S]/v versus [S] plot). […] It is believed that compared to AtAOS, SHLpAOS is a very useful AOS in the practical production of KODA.

[2] = Activity testing in KODA production (HPLC quantitation of KODA); assay type: biochemical; details: 0.32 ng protein in 20 μl 9-HPOT reaction solution, room temperature, 10 minutes; relative to AtAOS
Description: The allene oxide synthase activity can be determined by allowing a 9-product specific lipoxygenase to act on α-linolenic acid, and then adding a given amount of allene oxide synthase to the enzymatic reaction product 9-hydroperoxylinolenic acid (9-HPOT) to produce KODA, and the KODA produced is quantitatively analyzed by HPLC.
After the SHLpAOS sequence integrated into the pTAC-2 vector by the above method was cleaved with NcoI and XhoI, it was introduced into a commercially available vector pET41a (Novagen) for protein expression to obtain a plasmid pET41a/SHLpAOS for expression of Lemna paucicostata allene oxide synthase. This plasmid was transformed into Escherichia coli strain BL21(DE3) (Novagen). Then, it was inoculated in 3 ml of the LB medium containing 30 mg/l kanamycin, and cultured under shaking overnight at 37° C. and 250 rpm. 100 μl of this culture liquid was added to 10 ml of the LB medium containing the same concentration of kanamycin and 1% glucose and cultured under shaking at 37° C. and 250 rpm for 3-4 hours. […]
In the activity testing in KODA production, 5 mM linolenic acid solution (dissolved in 0.1% Tween 80 solution) was prepared, and reacted with lipoxygenase extracted from rice germ at pH 7 at room temperature for 10 minutes to synthesize 9-hydroperoxylinolenic acid (9-HPOT) solution. […] 10 μl of this solution was analyzed by HPLC. […]

B1: SHLpAOS: allene oxide synthase obtained from the Lemna paucicostata SH strain, expressed in Escherichia coli (SEQ ID NO: 2, 480 aa) (protein, listed as Lemna paucicostata)
chain: MSVSQSDDKAALVPQKTIPGSYGIPFITPLKDRLDFFSNEYQFFQSRVESYGSTIVRLNAPPGPFMAKNPQVIAILDGKSFPVLFDTSKVEKKNIFTGTYMPSTALTGGYRVCAYLDPSEPNHTKIKQLLLNILFNRKDHVIPEFHRAYEKLFDDMDAEIAKSGKFVFNDHNDGAAFEFLGRLFFGVSPSETELGAGGVKDANLWLFSQLCPLMTLGFLPKLLEDLLLHTFPLPPFLFKGKYQAIYKYISSVATDALTMAENLGLSREEAAHNLLFAVCFNSLGGVKVLFPGILRYIAQAGKNLQASLVSEVRSAVSSTGGELTIEALEKMPLTKSVVYESLRLDPPVKYQYGVVKKDMVIESHDRSYEVKAGETLFGYQPFATRDKKIFGPDADNFVAERFIGEEGAKVLRFVVWSNGPETTDPTPVDKQCPGKNLVVLISRLLVAEFFLRYDFFDAEIGAVPLAVKTTITSLTKATTR
Affinity for 9-HPOT, higher than AtAOS ([1]; relative to AtAOS): about 5 fold | Kcat value, higher than in AtAOS ([1]; relative to AtAOS): about 2.8 fold | Kcat/Kn value, higher than in AtAOS ([1]; relative to AtAOS): about 14 fold | Vmax, higher than AtAOS ([1]; relative to AtAOS): about 2.8 fold | Kcat [1]: 709.2 ± 44.3 s⁻¹ | Km [1]: 7.1 ± 1.9 µM | Vmax [1]: 4.7 ± 0.3 µmol/s | Activity in KODA production, higher than the AtAOS protein [2]: ~7 fold

B2: AtAOS: A. thaliana-derived allene oxide synthase (AOS) protein used as the control, expressed in Escherichia coli (protein, UniProt Q96242 34-518, looked up)
Allene oxide synthase, …: SGSETPDLTVATRTGSKDLPIRNIPGNYGLPIVGPIKDRWDYFYDQGAEEFFKSRIRKYNSTVYRVNMPPGAFIAENPQVVALLDGKSFPVLFDVDKVEKKDLFTGTYMPSTELTGGYRILSYLDPSEPKHEKLKNLLFFLLKSSRNRIFPEFQATYSELFDSLEKELSLKGKADFGGSSDGTAFNFLARAFYGTNPADTKLKADAPGLITKWVLFNLHPLLSIGLPRVIEEPLIHTFSLPPALVKSDYQRLYEFFLESAGEILVEADKLGISREEATHNLLFATCFNTWGGMKILFPNMVKRIGRAGHQVHNRLAEEIRSVIKSNGGELTMGAIEKMELTKSVVYECLRFEPPVTAQYGRAKKDLVIESHDAAFKVKAGEMLYGYQPLATRDPKIFDRADEFVPERFVGEEGEKLLRHVLWSNGPETETPTVGNKQCAGKDFVVLVARLFVIEIFRRYDSFDIEVGTSPLGSSVNFSSLRKASF
Kcat [1]: 255.5 ± 4.8 s⁻¹ | Km [1]: 36.3 ± 1.3 µM | Vmax [1]: 1.7 ± 0.03 µmol/s
